We go through 54 substances from PMC2854584.

One test deals with CD4-Ig. In words: pull-down.
Test [1] has as its target HIV-1YU2 gp41 transmembrane envelope glycoprotein (HIV-1 YU2) (UniProt P35961). In words: gp120-gp41 association index.
The next test concerns the target soluble CD4 (UniProt P01730). In words: SPR. In general terms: In SPR one partner is held on a chip, and binding of the other changes the refractive index at the surface.
The target of a further test is CCR5 (UniProt P51681). Put plainly: radioligand binding.

In the test with CD4-Ig, HIV-1YU2 gp120 A60G (natural protein) registered a CD4-Ig binding (relative to wild type) of 1.46. On the same count and under the same terms, with HIV-1YU2 gp120 A73S (natural protein) the figure was 1.19; with HIV-1YU2 gp120 A221G (natural protein), 0.76. As to HIV-1YU2 gp120 D57A (natural protein), the CD4-Ig binding (relative to wild type) with CD4-Ig came out at 0.91. This substance returned an association index (relative to wild type) in test [1] of 0.62.

HIV-1YU2 gp120 D78A (natural protein): the CD4-Ig binding (relative to wild type) with CD4-Ig stood at 1.13.

Take HIV-1YU2 gp120 D107A (natural protein): the CD4-Ig binding (relative to wild type) with CD4-Ig was 0.66. In the test with soluble CD4, this substance gave a Kd of 74.3 nM, a koff of 0.00142 s⁻¹ and a kon of 19100 M⁻¹ s⁻¹. The substance also yielded a fold reduction of CCR5 binding against wt gp120 in the test with CCR5 of 2 fold.

In turn, “HIV-1YU2 gp120 D107A/S375W (natural protein)” displayed a CD4-Ig binding (relative to wild type) with CD4-Ig of 0.76. This substance displayed an association index (relative to wild type) in test [1] of 0.61.

For HIV-1YU2 gp120 D107Q (natural protein), the CD4-Ig binding (relative to wild type) in the test with CD4-Ig worked out at 0.69. In turn, HIV-1YU2 gp120 D113A (natural protein) gave a CD4-Ig binding (relative to wild type) with CD4-Ig of 1.79.

The substance HIV-1YU2 gp120 E47A (natural protein) came in with an association index (relative to wild type) in test [1] of 0.64. HIV-1YU2 gp120 E91A (natural protein) yielded a CD4-Ig binding (relative to wild type) with CD4-Ig of 1.45. For the substance HIV-1YU2 gp120 F53A (natural protein), in the test with CD4-Ig, the CD4-Ig binding (relative to wild type) is 0.29. This substance showed an association index (relative to wild type) in test [1] of 0.25. In turn, HIV-1YU2 gp120 F210A (natural protein) had an association index (relative to wild type) in test [1] of 1.33. For HIV-1YU2 gp120 F223A (natural protein), in the test with CD4-Ig, the CD4-Ig binding (relative to wild type) is 0.85.

In the test with soluble CD4, HIV-1YU2 gp120 H66A (natural protein) had a Kd of 172 nM, a koff of 0.000569 s⁻¹ and a kon of 3320 M⁻¹ s⁻¹. In the case of “HIV-1YU2 gp120 H66A/S375W (natural protein)”, in the test with soluble CD4, the Kd stood at 7.67 nM, the koff worked out at 5.02e-06 s⁻¹ and the kon stood at 655 M⁻¹ s⁻¹. In the test with CD4-Ig, HIV-1YU2 gp120 H72A (natural protein) returned a CD4-Ig binding (relative to wild type) of 1.11.

With HIV-1YU2 gp120 I108A (natural protein), in the test with CD4-Ig, the CD4-Ig binding (relative to wild type) was found to be 1.48.

In the test with CD4-Ig, HIV-1YU2 gp120 I109A (natural protein) yielded a CD4-Ig binding (relative to wild type) of 0.49. In the test with CD4-Ig, HIV-1YU2 gp120 L52A (natural protein) gave a CD4-Ig binding (relative to wild type) of 0.23. For the same substance, the association index (relative to wild type) in test [1] worked out at 0.25. As for HIV-1YU2 gp120 L111A (natural protein), the association index (relative to wild type) in test [1] is 0.28. In addition, in the test with soluble CD4, the Kd amounted to 32.3 nM, the koff stood at 0.000426 s⁻¹ and the kon is 13200 M⁻¹ s⁻¹. This substance also registered a fold reduction of CCR5 binding against wt gp120 in the test with CCR5 of 2 fold.

In turn, “HIV-1YU2 gp120 L111A/S375W (natural protein)” displayed a CD4-Ig binding (relative to wild type) with CD4-Ig of 1.32. In the test with soluble CD4, this substance yielded a Kd of 1.12 nM, a koff of 1.92e-05 s⁻¹ and a kon of 17100 M⁻¹ s⁻¹. Turning to HIV-1YU2 gp120 L111F (natural protein), in the test with soluble CD4, the Kd came out at 13.3 nM, the koff worked out at 0.000204 s⁻¹ and the kon stood at 15300 M⁻¹ s⁻¹. In the test with soluble CD4, HIV-1YU2 gp120 L111W (natural protein) returned a Kd of 621 nM and a kon of 2090 M⁻¹ s⁻¹. In turn, HIV-1YU2 gp120 L116A (natural protein) returned a CD4-Ig binding (relative to wild type) with CD4-Ig of 0.67. The substance HIV-1YU2 gp120 M104A (natural protein) displayed a CD4-Ig binding (relative to wild type) with CD4-Ig of 1.25. In turn, HIV-1YU2 gp120 N80A (natural protein) gave a CD4-Ig binding (relative to wild type) with CD4-Ig of 1.24. In addition, the association index (relative to wild type) in test [1] was determined as 0.65. The substance HIV-1YU2 gp120 N99A (natural protein) yielded a CD4-Ig binding (relative to wild type) with CD4-Ig of 0.97. This substance yielded an association index (relative to wild type) in test [1] of 0.7. The matching figures for HIV-1YU2 gp120 P76A (natural protein): 1.02 and 0.64. In the case of HIV-1YU2 gp120 P79A (natural protein), the CD4-Ig binding (relative to wild type) in the test with CD4-Ig is 1.29. Moreover, the association index (relative to wild type) in test [1] worked out at 0.64. On to HIV-1YU2 gp120 P212A (natural protein), for which, in the test with CD4-Ig, the CD4-Ig binding (relative to wild type) stood at 0.65. In the test with CD4-Ig, HIV-1YU2 gp120 Q82A (natural protein) registered a CD4-Ig binding (relative to wild type) of 1.12. The same substance gave an association index (relative to wild type) in test [1] of 1.03.

Substance HIV-1YU2 gp120 Q103A (natural protein) showed a CD4-Ig binding (relative to wild type) with CD4-Ig of 1.15. The same substance had an association index (relative to wild type) in test [1] of 1.07.

As to HIV-1YU2 gp120 Q103R (natural protein), the CD4-Ig binding (relative to wild type) in the test with CD4-Ig was found to be 0.74. As for HIV-1YU2 gp120 Q114N (natural protein), the CD4-Ig binding (relative to wild type) with CD4-Ig amounted to 1.09. In test [1], this substance gave an association index (relative to wild type) of 0.74.

HIV-1YU2 gp120 S110N (natural protein) registered an association index (relative to wild type) in test [1] of 0.66.

In test [1], HIV-1YU2 gp120 S110W (natural protein) returned an association index (relative to wild type) of 0.49.

Regarding HIV-1YU2 gp120 S115A (natural protein), the CD4-Ig binding (relative to wild type) with CD4-Ig turned out to be 1.36. This substance also registered an association index (relative to wild type) in test [1] of 1.12. Turning to HIV-1YU2 gp120 S375W (natural protein), the CD4-Ig binding (relative to wild type) in the test with CD4-Ig amounted to 1.12. In the test with soluble CD4, the Kd stood at 0.0469 nM, the koff amounted to 6.49e-07 s⁻¹ and the kon stood at 13800 M⁻¹ s⁻¹.

HIV-1YU2 gp120 T49A (natural protein) had a CD4-Ig binding (relative to wild type) with CD4-Ig of 1.14. The association index (relative to wild type) in test [1] is 1.07. In turn, HIV-1YU2 gp120 T51A (natural protein) came in with a CD4-Ig binding (relative to wild type) in the test with CD4-Ig of 1.02. For the same substance, the association index (relative to wild type) in test [1] amounted to 1.06.

In the test with CD4-Ig, HIV-1YU2 gp120 T63A (natural protein) came in with a CD4-Ig binding (relative to wild type) of 1.79.

Regarding HIV-1YU2 gp120 T71A (natural protein), the CD4-Ig binding (relative to wild type) with CD4-Ig was determined as 0.85. In the test with CD4-Ig, HIV-1YU2 gp120 T77A (natural protein) yielded a CD4-Ig binding (relative to wild type) of 1.52. In the test with CD4-Ig, HIV-1YU2 gp120 V68A (natural protein) showed a CD4-Ig binding (relative to wild type) of 1.12. For HIV-1YU2 gp120 V89A (natural protein), the CD4-Ig binding (relative to wild type) with CD4-Ig is 0.97. HIV-1YU2 gp120 W69L (natural protein) showed a CD4-Ig binding (relative to wild type) in the test with CD4-Ig of 0.64. This substance showed an association index (relative to wild type) in test [1] of 0.89. In the test with soluble CD4, this substance had an equilibrium dissociation constant (Kd) of 54.2 nM, a koff of 0.000526 s⁻¹ and a kon of 9690 M⁻¹ s⁻¹. This substance also yielded a fold reduction of CCR5 binding against wt gp120 with CCR5 of 2 fold. In test [1], “HIV-1YU2 gp120 W69L/L111W (natural protein)” registered an association index (relative to wild type) of 0.28. In addition, in the test with soluble CD4, the Kd stood at 871 nM, the koff stood at 0.000483 s⁻¹ and the kon turned out to be 554 M⁻¹ s⁻¹. For “HIV-1YU2 gp120 W69L/S375W (natural protein)”, in the test with CD4-Ig, the CD4-Ig binding (relative to wild type) is 1.11. In test [1], this substance showed an association index (relative to wild type) of 0.81. In the test with soluble CD4, this substance came in with a Kd of 0.846 nM, a koff of 9.98e-06 s⁻¹ and a kon of 11800 M⁻¹ s⁻¹. Take HIV-1YU2 gp120 W96A (natural protein): the CD4-Ig binding (relative to wild type) with CD4-Ig was found to be 0.66. The same substance had an association index (relative to wild type) in test [1] of 0.65. In the test with CD4-Ig, HIV-1YU2 gp120 W112A (natural protein) gave a CD4-Ig binding (relative to wild type) of 0.25. With HIV-1YU2 gp120 W437R (natural protein), the association index (relative to wild type) in test [1] came out at 0.64. In the test with CD4-Ig, HIV-1YU2 gp120 Y61A (natural protein) yielded a CD4-Ig binding (relative to wild type) of 1.33. For the same substance, in test [1], the association index (relative to wild type) was 0.89. On to “HIV-1YU2 gp120 exterior envelope glycoprotein, wild-type (from UniProt P35961 32-498) (natural protein)”, for which the CD4-Ig binding (relative to wild type) in the test with CD4-Ig came out at 1.

One may read the Kd as a measure of binding affinity in units of concentration. A low value points to tighter binding. A word on the koff: it is the first-order rate constant of dissociation. A higher koff goes with fast dissociation. As a reminder, the kon is the rate constant with which the complex forms.
